Source: patent publication US6919086B1, “Graminae pollen allergen mutants for specific immunotherapy, and production and use of the same” (Merck Patent Gesellschaft mit, priority 1997, dated 2005)
Where a chain is given by its changes, count along the chain named. Numbers in names are those of the source. Where two headings read alike, the source gives them in different places.

Tests used:
[1] = test system: IgE antibodies of allergic patients; experiment: EAST inhibition test (IgE reactivity / allergenicity); format: binding, human; conditions: for IC50: read-out: Inhibition value 50% (concentration of the inhibitor at 50% inhibition); for Allergenic potency (Prel) 25%: relative to native Phl p 5b at 25% inhibition; for Allergenic potency (Prel) 50%: relative to native Phl p 5b at 50% inhibition; for EAST inhibition curve / inhibitory effect (in words): serum pool Bor 18/100 (20 donors), FIG. 1; for Allergenicity from EAST inhibition curves (in words): serum pool We 6/97 and individual sera II3, II12, II17, FIGS. 2-5
How it was run: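 Plates coated with natural or recombinant Ph1 p 5 or Ph1 p 5b (1 μg/ml), BSA-blocked, incubated with allergic patient sera (pool of 10-30 donors or individual) plus soluble allergen mutants as inhibitors. Bound IgE detected by enzyme-coupled anti-IgE; inhibition curves referenced to purified natural Ph1 p 5b.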

[2] = test system: Phl p 5b-reactive T cell lines (TCLs) from allergic patients; experiment: Proliferative reaction of Phl p 5b-reactive oligoclonal T cell lines ([3H]-thymidine incorporation); format: cell-based, human; conditions: secondary activator 0.3 μM; for Incorporation of [3H]-thymidine into TCL 5 17.4 (stimulation index class): primary stimulator r Phl p 5; for Incorporation of [3H]-thymidine into TCL 7 19.2 (stimulation index class) / Incorporation of [3H]-thymidine into TCL 8 20.1 (stimulation index class): primary stimulator r Phl p 5b
How it was run: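 T cell lines from grass-pollen-allergic patients were raised by repeated stimulation with Phl p 5b allergens. TCL blasts (2×10^4/ml) were cultured with irradiated autologous APCs (5×10^4/ml) and 10-20 μg antigen for 56 h, then given [3H]-thymidine for 16 h. Stimulation index is cpm with antigen over cpm without.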

[3] = molecular target: IgE antibodies of the allergic patient serum pool We 6/97; experiment: EAST inhibition, serum pool We 6/97
[4] = molecular target: IgE antibodies of the allergic patient serum pool Bor 18/100 (20 donors); experiment: EAST inhibition, serum pool Bor 18/100
[5] = molecular target: IgE antibodies of the individual allergic patient serum II/3; experiment: EAST inhibition, individual serum II/3
[6] = molecular target: IgE antibodies of the individual allergic patient serum II/12; experiment: EAST inhibition, individual serum II/12
[7] = molecular target: IgE antibodies of the individual allergic patient serum II/17; experiment: EAST inhibition, individual serum II/17
[8] = allergic patient serum pool Bor 18/100
[9] = allergic patient serum pool We 6/97
[10] = individual allergic patient serum II/3
[11] = individual allergic patient serum II/12
[12] = individual allergic patient serum II/17

B1: rPhl p 5b point mutant PM1 (N32D, D49L, K50A) (protein)
chain: ADAGYAPATPAAAGAAAGKATTEEQKLIEDIDVGFKAAVAAAASVPAALAFKTFEAAFTSSSKAAAAKAPGLVPKLDAAYSVAYKAAVGATPEAKFDSFVASLTEALRVIAGALEVHAVKPVTEEPGMAKIPAGELQIIDKIDAAFKVAATAAATAPADDKFTVFEAAFNKAIKESTGGAYDTYKCIPSLEAAVKQAYAATVAAAPQVKYAVFEAALTKAITAMSEVQKVSQPATGAATVAAGAATTAAGAASGAATVAAGGYKV
Which results are given for B1?
Inhibition value 25% (concentration of the inhibitor at 25% inhibition) [1, 8]: 4.5e-10 mol/L; IC50 [1, 8]: 12 nM; Inhibition value 25% (concentration of the inhibitor at 25% inhibition) [1, 9]: 1.2e-09 mol/L; IC50 [1, 9]: 120 nM; Inhibition value 25% (concentration of the inhibitor at 25% inhibition) [1, 10]: 8.6e-10 mol/L; IC50 [1, 10]: 19 nM; Inhibition value 25% (concentration of the inhibitor at 25% inhibition) [1, 11]: 1.3e-09 mol/L; IC50 [1, 11]: 83 nM; Inhibition value 25% (concentration of the inhibitor at 25% inhibition) [1, 12]: 6.4e-10 mol/L; IC50 [1, 12]: 2.2 nM; Allergenic potency (Prel) 25% ([1]; individual serum II/3): 0.5950; Allergenic potency (Prel) 25% ([1]; individual serum II/12): 0.391; Allergenic potency (Prel) 25% ([1]; individual serum II/17): 0.336; Allergenic potency (Prel) 25% ([1]; serum pool Bor 18/100): 0.739; Allergenic potency (Prel) 25% ([1]; serum pool We 6/97): 0.415; Allergenic potency (Prel) 50% ([1]; individual serum II/3): 0.3140; Allergenic potency (Prel) 50% ([1]; individual serum II/12): 0.082; Allergenic potency (Prel) 50% ([1]; individual serum II/17): 0.1190; Allergenic potency (Prel) 50% ([1]; serum pool Bor 18/100): 0.3490; Allergenic potency (Prel) 50% ([1]; serum pool We 6/97): 0.0510; EAST inhibition curve / inhibitory effect (in words) [1]: exhibits this effect in the higher range to a somewhat greater degree; Allergenicity from EAST inhibition curves (in words) [1]: either no reduction, or only a reduction which is for the most part slight; Incorporation of [3H]-thymidine into TCL 1 Wöl (stimulation index class) ([2]; primary stimulator n Phl p 5): + (1-2 (+)); Incorporation of [3H]-thymidine into TCL 3 Fre (stimulation index class) ([2]; primary stimulator n Phl p 5): + (1-2 (+)); Incorporation of [3H]-thymidine into TCL 5 17.4 (stimulation index class) [2]: + (1-2 (+)); Incorporation of [3H]-thymidine into TCL 6 Mah (stimulation index class) ([2]; primary stimulator r Phl p 5a, r Phl p 5b): ++ (5-10 (++)); Incorporation of [3H]-thymidine into TCL 7 19.2 (stimulation index class) [2]: +++ (>10 (+++)); Incorporation of [3H]-thymidine into TCL 8 20.1 (stimulation index class) [2]: +++ (>10 (+++)); IC50 [3]: 120 nM; allergenic potency (Prel) at 25% inhibition (relative to native Phl p 5b) [3]: 0.415; allergenic potency (Prel) at 50% inhibition (relative to native Phl p 5b) [3]: 0.051; inhibition value (inhibitor concentration at 25% inhibition) [3]: 1.2e-09 mol/L; IC50 [4]: 12 nM; allergenic potency (Prel) at 25% inhibition (relative to native Phl p 5b) [4]: 0.739; allergenic potency (Prel) at 50% inhibition (relative to native Phl p 5b) [4]: 0.349; inhibition value (inhibitor concentration at 25% inhibition) [4]: 4.5e-10 mol/L; IC50 [5]: 19 nM; allergenic potency (Prel) at 25% inhibition (relative to native Phl p 5b) [5]: 0.595; allergenic potency (Prel) at 50% inhibition (relative to native Phl p 5b) [5]: 0.314; inhibition value (inhibitor concentration at 25% inhibition) [5]: 8.6e-10 mol/L; IC50 [6]: 83 nM; allergenic potency (Prel) at 25% inhibition (relative to native Phl p 5b) [6]: 0.391; allergenic potency (Prel) at 50% inhibition (relative to native Phl p 5b) [6]: 0.082; inhibition value (inhibitor concentration at 25% inhibition) [6]: 1.3e-09 mol/L; IC50 [7]: 2.2 nM; allergenic potency (Prel) at 25% inhibition (relative to native Phl p 5b) [7]: 0.336; allergenic potency (Prel) at 50% inhibition (relative to native Phl p 5b) [7]: 0.119; inhibition value (inhibitor concentration at 25% inhibition) [7]: 6.4e-10 mol/L

B2: rPhl p 5b point mutant PM3 (A13C) (protein)
chain: B1 chain with A13C, D32N, L49D, A50K
Which results are given for B2?
Inhibition value 25% (concentration of the inhibitor at 25% inhibition) [1, 8]: 2e-10 mol/L; IC50 [1, 8]: 4.8 nM; Inhibition value 25% (concentration of the inhibitor at 25% inhibition) [1, 9]: 8.3e-10 mol/L; IC50 [1, 9]: 30 nM; Inhibition value 25% (concentration of the inhibitor at 25% inhibition) [1, 10]: 5.5e-10 mol/L; IC50 [1, 10]: 15 nM; Inhibition value 25% (concentration of the inhibitor at 25% inhibition) [1, 11]: 1.3e-09 mol/L; IC50 [1, 11]: 91 nM; Inhibition value 25% (concentration of the inhibitor at 25% inhibition) [1, 12]: 2.5e-10 mol/L; IC50 [1, 12]: 5.5 nM; Allergenic potency (Prel) 25% ([1]; individual serum II/3): 0.9220; Allergenic potency (Prel) 25% ([1]; individual serum II/12): 0.389; Allergenic potency (Prel) 25% ([1]; individual serum II/17): 0.855; Allergenic potency (Prel) 25% ([1]; serum pool Bor 18/100): 1.641; Allergenic potency (Prel) 25% ([1]; serum pool We 6/97): 0.611; Allergenic potency (Prel) 50% ([1]; individual serum II/3): 0.3990; Allergenic potency (Prel) 50% ([1]; individual serum II/12): 0.075; Allergenic potency (Prel) 50% ([1]; individual serum II/17): 0.4680; Allergenic potency (Prel) 50% ([1]; serum pool Bor 18/100): 0.8640; Allergenic potency (Prel) 50% ([1]; serum pool We 6/97): 0.2030; EAST inhibition curve / inhibitory effect (in words) [1]: binding curves which are similar to that obtained with natural Ph1 p 5b; Allergenicity from EAST inhibition curves (in words) [1]: either no reduction, or only a reduction which is for the most part slight; Incorporation of [3H]-thymidine into TCL 3 Fre (stimulation index class) ([2]; primary stimulator n Phl p 5): + (1-2 (+)); Incorporation of [3H]-thymidine into TCL 4 Mer (stimulation index class) ([2]; primary stimulator n Phl p 5): + (1-2 (+)); Incorporation of [3H]-thymidine into TCL 5 17.4 (stimulation index class) [2]: + (1-2 (+)); Incorporation of [3H]-thymidine into TCL 7 19.2 (stimulation index class) [2]: +++ (>10 (+++)); Incorporation of [3H]-thymidine into TCL 8 20.1 (stimulation index class) [2]: + (1-2 (+)); IC50 [3]: 30 nM; allergenic potency (Prel) at 25% inhibition (relative to native Phl p 5b) [3]: 0.611; allergenic potency (Prel) at 50% inhibition (relative to native Phl p 5b) [3]: 0.203; inhibition value (inhibitor concentration at 25% inhibition) [3]: 8.3e-10 mol/L; IC50 [4]: 4.8 nM; allergenic potency (Prel) at 25% inhibition (relative to native Phl p 5b) [4]: 1.64; allergenic potency (Prel) at 50% inhibition (relative to native Phl p 5b) [4]: 0.864; inhibition value (inhibitor concentration at 25% inhibition) [4]: 2e-10 mol/L; IC50 [5]: 15 nM; allergenic potency (Prel) at 25% inhibition (relative to native Phl p 5b) [5]: 0.922; allergenic potency (Prel) at 50% inhibition (relative to native Phl p 5b) [5]: 0.399; inhibition value (inhibitor concentration at 25% inhibition) [5]: 5.5e-10 mol/L; IC50 [6]: 91 nM; allergenic potency (Prel) at 25% inhibition (relative to native Phl p 5b) [6]: 0.389; allergenic potency (Prel) at 50% inhibition (relative to native Phl p 5b) [6]: 0.075; inhibition value (inhibitor concentration at 25% inhibition) [6]: 1.3e-09 mol/L; IC50 [7]: 5.5 nM; allergenic potency (Prel) at 25% inhibition (relative to native Phl p 5b) [7]: 0.855; allergenic potency (Prel) at 50% inhibition (relative to native Phl p 5b) [7]: 0.468; inhibition value (inhibitor concentration at 25% inhibition) [7]: 2.5e-10 mol/L
